Results: the RNAGym collection of RNA variant scans (doi:10.1073/pnas.2313332121)

B1: TPR t1 (parent)
chain: GACCAAUCUGCCCUCAGAGCUCGAGAACAUCUUCGGAUGCAGAGGAGGCAGGCUUCGGUGGCGCGAUAGCGCCAACGUCCUCAACCUCCAAUGCAUCCCACCACAUGAUGAUGCCUGAAGAGCCUUGGUUUUUUG

Variants of: B1
Assay: polymerase ribozyme fitness, log enrichment relative to wild type (log ratio); higher = more active; in vitro selection for triplet polymerase activity
In short: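 Each subunit of a heterodimeric triplet polymerase ribozyme was mutagenized into a library by PCR, transcribed, and subjected to one round of in vitro selection, run in triplicate. Libraries were annealed with a biotinylated primer, the partner subunit and triplets, incubated frozen at −7 °C, and extended constructs were gel-excised, captured on streptavidin beads and recovered by RT-PCR. Input and output libraries were sequenced on Illumina, keeping genotypes with ≥10 input reads and ≥1 read per output. Fitness is log base 2 of genotype enrichment divided by wild-type enrichment, from inverse-variance-weighted replicate averages.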
With C11G U32G U125A U126G the “polymerase ribozyme fitness (log ratio)” value was -6.54. For C11A U132A, the “polymerase ribozyme fitness (log ratio)” value was -2.12. With C11G C12G G48U G58U G60U C85A U106G the “polymerase ribozyme fitness (log ratio)” value was -4.78. For G10U A46C A74U G127C, the “polymerase ribozyme fitness (log ratio)” value was -2.03. In the case of G10U C94U C101A C104A, the “polymerase ribozyme fitness (log ratio)” value is reported as -3.21. For C11G G39A C124A, the “polymerase ribozyme fitness (log ratio)” value was 1.48. In the case of C11G U109G, the “polymerase ribozyme fitness (log ratio)” value is reported as -4.69. With G10U C56A U59C U112A the “polymerase ribozyme fitness (log ratio)” value was -0.649. With C11G A18U C72A A91U G110C the “polymerase ribozyme fitness (log ratio)” value was -5.23. In the case of C11G A66C, the “polymerase ribozyme fitness (log ratio)” value is reported as -0.842. With G10U C13A C104U the “polymerase ribozyme fitness (log ratio)” value was -0.097. In the case of C11G C73A, the “polymerase ribozyme fitness (log ratio)” value is reported as 0.279. For G10C U32C G52A U112A G128A, the “polymerase ribozyme fitness (log ratio)” value was -2.52. With C11G C20A A26U C85U A90U A121C the “polymerase ribozyme fitness (log ratio)” value was -4.44. With C11A G69U C94U U130A the “polymerase ribozyme fitness (log ratio)” value was -1.6. With G10C C13A C40A G42U G52U C72A the “polymerase ribozyme fitness (log ratio)” value was -5.16. For C11G C40A C76G C86U C114U U125C, the “polymerase ribozyme fitness (log ratio)” value was -5.11. With C11A G63U the “polymerase ribozyme fitness (log ratio)” value was -1.77. With C11A A75U C79U C85A the “polymerase ribozyme fitness (log ratio)” value was -2.71. For C11A G42A C86U U96A, the “polymerase ribozyme fitness (log ratio)” value was -4.6. For G10C G71A G113C, the “polymerase ribozyme fitness (log ratio)” value was -4.81. With C11A G57A C73A C88G the “polymerase ribozyme fitness (log ratio)” value was -4.51. In the case of C11G A18U G42C C89A, the “polymerase ribozyme fitness (log ratio)” value is reported as -0.965. For C11G A68U, the “polymerase ribozyme fitness (log ratio)” value was -4.49. For G10U C12A G71U U78A C80U C114G, the “polymerase ribozyme fitness (log ratio)” value was -3.23. For C11A A37C U54C, the “polymerase ribozyme fitness (log ratio)” value was -2.16. For C11G G51C, the “polymerase ribozyme fitness (log ratio)” value was -4.46. In the case of C11G C12A C64U U96C A108G, the “polymerase ribozyme fitness (log ratio)” value is reported as -2.32. With C11G U59A A68U the “polymerase ribozyme fitness (log ratio)” value was -7.59. For C11G C12A C49U C85A A91C, the “polymerase ribozyme fitness (log ratio)” value was -2.76. In the case of G10C U38C C40U C64U C101A, the “polymerase ribozyme fitness (log ratio)” value is reported as -1.8. For C11A C40U G69U A83G G117U G127C U133G, the “polymerase ribozyme fitness (log ratio)” value was -4.24. For C11G G19A C56U C73U, the “polymerase ribozyme fitness (log ratio)” value was -2.04. In the case of C11A G17C U55C C88U U131G, the “polymerase ribozyme fitness (log ratio)” value is reported as -5.05. For C11G A16G G60A C64U G110A A118G, the “polymerase ribozyme fitness (log ratio)” value was -6.79. For C11G G48U C72A, the “polymerase ribozyme fitness (log ratio)” value was -0.215. With C11G G35A the “polymerase ribozyme fitness (log ratio)” value was -2.51. With C11G G19C C73G the “polymerase ribozyme fitness (log ratio)” value was -3.75. With C11A U116G the “polymerase ribozyme fitness (log ratio)” value was -4.36. For G10U A16C G44C C70U A111C U125G, the “polymerase ribozyme fitness (log ratio)” value was -7.14. With C11G C12A G69C C104A the “polymerase ribozyme fitness (log ratio)” value was -2.8. With C11G C115U the “polymerase ribozyme fitness (log ratio)” value was -1.01. For C11U A16C G63A, the “polymerase ribozyme fitness (log ratio)” value was -3.2. For G10U C22G A46G C76A A118U, the “polymerase ribozyme fitness (log ratio)” value was -4.37. With C11A C40G G42A G71A the “polymerase ribozyme fitness (log ratio)” value was -4.67. With G10U C12A C49U A118U U131G the “polymerase ribozyme fitness (log ratio)” value was -1.34. For G10U C15U C56A C72G G120A, the “polymerase ribozyme fitness (log ratio)” value was -0.935. In the case of G10C C11U C13A A37U C70U, the “polymerase ribozyme fitness (log ratio)” value is reported as -0.31. With G10U U129C the “polymerase ribozyme fitness (log ratio)” value was -1.9. For C11A C53U C85A, the “polymerase ribozyme fitness (log ratio)” value was -3.03. With G10U U14G U116C the “polymerase ribozyme fitness (log ratio)” value was -1.69. In the case of C11A C53G G57A C123G, the “polymerase ribozyme fitness (log ratio)” value is reported as -1.45. In the case of C11A C12G C20U U55A C56U G93C, the “polymerase ribozyme fitness (log ratio)” value is reported as -4.53. With G10U A26U G39C C89U the “polymerase ribozyme fitness (log ratio)” value was -5.19. With C11G C49A G52U U131A the “polymerase ribozyme fitness (log ratio)” value was -1.34. For G10C C28G, the “polymerase ribozyme fitness (log ratio)” value was -3.74. For G10U U55C C123A, the “polymerase ribozyme fitness (log ratio)” value was 0.286. In the case of C11A U55G C80U C104U G113A, the “polymerase ribozyme fitness (log ratio)” value is reported as -4.77. In the case of C11G C15G G113U, the “polymerase ribozyme fitness (log ratio)” value is reported as -4.66. With G10U C53G U78A the “polymerase ribozyme fitness (log ratio)” value was -2.99. With C11G G61C U78C U126A the “polymerase ribozyme fitness (log ratio)” value was -4.7. With G10C G57C G117C the “polymerase ribozyme fitness (log ratio)” value was -4.35. For G10U C49U G57A U106C, the “polymerase ribozyme fitness (log ratio)” value was -2.46. For C11G G51A C72A, the “polymerase ribozyme fitness (log ratio)” value was -2.19. In the case of C11G A66G C114U C124G, the “polymerase ribozyme fitness (log ratio)” value is reported as -3.83. In the case of G10U A100U, the “polymerase ribozyme fitness (log ratio)” value is reported as -1.18. With C11U A16U U112A the “polymerase ribozyme fitness (log ratio)” value was -0.434. For C11U A37U U55C, the “polymerase ribozyme fitness (log ratio)” value was -1.28. With G10U G36A G61C the “polymerase ribozyme fitness (log ratio)” value was -3.3. For C11A G48U G69U A103C, the “polymerase ribozyme fitness (log ratio)” value was -3.74. For C11G A50C C72A U92G C114A G122C U131C, the “polymerase ribozyme fitness (log ratio)” value was -3.27. In the case of C11A G45A G60A G113C, the “polymerase ribozyme fitness (log ratio)” value is reported as -4.47. For G10U C13U G61U, the “polymerase ribozyme fitness (log ratio)” value was -0.215. For C11A C73U C94U, the “polymerase ribozyme fitness (log ratio)” value was -1.82. In the case of G10C G69A, the “polymerase ribozyme fitness (log ratio)” value is reported as -4.78. For G10U G63A U112A, the “polymerase ribozyme fitness (log ratio)” value was -0.981. In the case of C11G C40A G122A G127U, the “polymerase ribozyme fitness (log ratio)” value is reported as -1.57. In the case of C11G C12U G42C G69C, the “polymerase ribozyme fitness (log ratio)” value is reported as -5.66. With C11U A50G the “polymerase ribozyme fitness (log ratio)” value was -0.405. In the case of G10U A37U, the “polymerase ribozyme fitness (log ratio)” value is reported as -0.888. In the case of G10U G39A C98U, the “polymerase ribozyme fitness (log ratio)” value is reported as -1.4. With G10C G25C C31G C89A C114U the “polymerase ribozyme fitness (log ratio)” value was -7.2. For C11G C34U A84C, the “polymerase ribozyme fitness (log ratio)” value was -3.61.
